Reference: patent publication US6090381

Legend:
[1] = target: target antigen of the LL2 antibody (not given); assay: ELISA, calculated from ID50 values; coated reagent not named
[2] = target: target antigen of the LL2 antibody (not given); assay: competitive binding assay, F(ab')2; competitor and antigen not named; design: unit not given beside the values
[3] = target: target antigen of the LL2 antibody (not given); assay: cell surface binding assay, calculated from the ID50 values; cells not named
[4] = target: target antigen of the LL2 antibody (not given); assay: competitive binding assay, F(ab')2; from the ID50 against unmodified control F(ab')2

| Substance | Immunoreactivity (%), ELISA [1] | ID50 [2] | Immunoreactivity (%), Cell Binding [3] | Immunoreactivity, % of hLL2 [4] |
| --- | --- | --- | --- | --- |
| F(ab')2 fragment of hLL2 (antibody) | 100% | 0.384 | 100% | 100% |
| dextran-doxorubicin-conjugated F(ab')2 fragment of hLL2 (antibody) | 42.2% | – | 41.9% | – |
